The source of these data is US20140271457A1 (AbbVie / Abbott, published 2014).

One assay addresses Recombinant Human β-NGF (human, UniProt P01138 122-241). In words: cell-based or functional assay.
Assay [1] addresses Recombinant Human TNF-α/TNFSF1A (human, UniProt P01375 77-233). In words: cell-based or functional assay.

Sequence of Recombinant Human β-NGF (P01138 122-241 limits assumed): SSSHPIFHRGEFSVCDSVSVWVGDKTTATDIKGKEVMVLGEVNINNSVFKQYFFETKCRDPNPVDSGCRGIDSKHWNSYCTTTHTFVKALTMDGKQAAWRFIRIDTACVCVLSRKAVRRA
Sequence of Recombinant Human TNF-α/TNFSF1A (P01375 77-233 limits assumed): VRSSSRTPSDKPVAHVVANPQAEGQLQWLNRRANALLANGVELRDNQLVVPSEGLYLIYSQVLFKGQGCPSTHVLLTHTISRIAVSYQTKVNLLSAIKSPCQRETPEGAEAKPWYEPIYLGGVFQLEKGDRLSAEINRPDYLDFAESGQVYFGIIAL

B1: DVD2763 (bispecific antibody, IgG1)
VH: EVQLVESGGGLVQPGGSLRLSCAASGFTFSNYGVEWVRQAPGKGLEWVSGIWADGSTHYADTVKSRFTISRDNSKNTLYLQMNSLRAEDTAVYYCAREWQHGPVAYWGQGTLVTVSSGGGGSGGGGSEVQLVESGGGLVQPGGSLRLSCAASGFSLTNNNVNWVRQAPGKGLEWVGGVWAGGATDYNSALKSRFTISRDNSKNTAYLQMNSLRAEDTAVYYCARDGGYSSSTLYAMDAWGQGTLVTVSS
VL: DIQMTQSPSSLSASVGDRVTITCKASQLVSSAVAWYQQKPGKAPKLLIYWASTLHTGVPSRFSGSGSGTDFTLTISSLQPEDFATYYCQQHYRTPFTFGQGTKLEIKRGGSGGGGSGDIQMTQSPSSLSASVGDRVTITCRASEDIYNALAWYQQKPGKAPKLLIYNTDTLHTGVPSRFSGSGSGTDYTLTISSLQPEDFATYFCQHYFHYPRTFGQGTKVEIKR
With B1, in the assay with Recombinant Human β-NGF, the “C-Terminal VD NGF Neutralization Assay IC50” value was 0.871 nM. Besides, in assay [1], the “N-Terminal VD huTNFα Neutralization Assay IC50” value came to 0.004 nM.

B2: DVD2768 (bispecific antibody, IgG1)
VH: EVQLVESGGGLVQPGGSLRLSCAASGFSLTNNNVNWVRQAPGKGLEWVGGVWAGGATDYNSALKSRFTISRDNSKNTAYLQMNSLRAEDTAVYYCARDGGYSSSTLYAMDAWGQGTLVTVSSGGGGSGGGGSEVQLVESGGGLVQPGGSLRLSCAASGFTFSNYGVEWVRQAPGKGLEWVSGIWADGSTHYADTVKSRFTISRDNSKNTLYLQMNSLRAEDTAVYYCAREWQHGPVAYWGQGTLVTVSS
VL: DIQMTQSPSSLSASVGDRVTITCRASEDIYNALAWYQQKPGKAPKLLIYNTDTLHTGVPSRFSGSGSGTDYTLTISSLQPEDFATYFCQHYFHYPRTFGQGTKVEIKRGGSGGGGSGDIQMTQSPSSLSASVGDRVTITCKASQLVSSAVAWYQQKPGKAPKLLIYWASTLHTGVPSRFSGSGSGTDFTLTISSLQPEDFATYYCQQHYRTPFTFGQGTKLEIKR
On to B2, for which, in the assay with Recombinant Human β-NGF, the “N-Terminal VD NGF Neutralization Assay IC50” value is 0.003 nM. In assay [1], the “C-Terminal VD huTNFα Neutralization Assay IC50” value was 0.189 nM.

B3: DVD2764 (bispecific antibody, IgG1)
VH: EVQLVESGGGLVQPGGSLRLSCAASGFTFSNYGVEWVRQAPGKGLEWVSGIWADGSTHYADTVKSRFTISRDNSKNTLYLQMNSLRAEDTAVYYCAREWQHGPVAYWGQGTLVTVSSASTKGPEVQLVESGGGLVQPGGSLRLSCAASGFSLTNNNVNWVRQAPGKGLEWVGGVWAGGATDYNSALKSRFTISRDNSKNTAYLQMNSLRAEDTAVYYCARDGGYSSSTLYAMDAWGQGTLVTVSS
VL: DIQMTQSPSSLSASVGDRVTITCKASQLVSSAVAWYQQKPGKAPKLLIYWASTLHTGVPSRFSGSGSGTDFTLTISSLQPEDFATYYCQQHYRTPFTFGQGTKLEIKRTVAAPDIQMTQSPSSLSASVGDRVTITCRASEDIYNALAWYQQKPGKAPKLLIYNTDTLHTGVPSRFSGSGSGTDYTLTISSLQPEDFATYFCQHYFHYPRTFGQGTKVEIKR
In the case of B3, in the assay with Recombinant Human β-NGF, the “C-Terminal VD NGF Neutralization Assay IC50” value is 4.1 nM. For the same molecule, the “N-Terminal VD huTNFα Neutralization Assay IC50” value in assay [1] was found to be 0.012 nM.

B4: DVD2767 (bispecific antibody, IgG1)
VH: EVQLVESGGGLVQPGGSLRLSCAASGFTFSNYGVEWVRQAPGKGLEWVSGIWADGSTHYADTVKSRFTISRDNSKNTLYLQMNSLRAEDTAVYYCAREWQHGPVAYWGQGTLVTVSSASTKGPSVFPLAPEVQLVESGGGLVQPGGSLRLSCAASGFSLTNNNVNWVRQAPGKGLEWVGGVWAGGATDYNSALKSRFTISRDNSKNTAYLQMNSLRAEDTAVYYCARDGGYSSSTLYAMDAWGQGTLVTVSS
VL: DIQMTQSPSSLSASVGDRVTITCKASQLVSSAVAWYQQKPGKAPKLLIYWASTLHTGVPSRFSGSGSGTDFTLTISSLQPEDFATYYCQQHYRTPFTFGQGTKLEIKRTVAAPDIQMTQSPSSLSASVGDRVTITCRASEDIYNALAWYQQKPGKAPKLLIYNTDTLHTGVPSRFSGSGSGTDYTLTISSLQPEDFATYFCQHYFHYPRTFGQGTKVEIKR
Regarding B4, in the assay with Recombinant Human β-NGF, the “C-Terminal VD NGF Neutralization Assay IC50” value stood at 0.646 nM. Moreover, the “N-Terminal VD huTNFα Neutralization Assay IC50” value in assay [1] worked out at 0.01 nM.

B5: DVD2813 (bispecific antibody, IgG1)
VH: EVQLVQSGAEVKKPGASVKVSCKASGYTFANYGIIWVRQAPGQGLEWMGWINTYTGKPTYAQKFQGRVTMTTDTSTSTAYMELSSLRSEDTAVYYCARKLFTTMDVTDNAMDYWGQGTTVTVSSGGGGSGGGGSEVQLVESGGGLVQPGGSLRLSCAASGFSLTNNNVNWVRQAPGKGLEWVGGVWAGGATDYNSALKSRFTISRDNSKNTAYLQMNSLRAEDTAVYYCARDGGYSSSTLYAMDAWGQGTLVTVSS
VL: DIQMTQSPSSLSASVGDRVTITCRASQDISQYLNWYQQKPGKAPKLLIYYTSRLQSGVPSRFSGSGSGTDFTLTISSLQPEDFATYFCQQGNTWPPTFGQGTKLEIKRGGSGGGGSGDIQMTQSPSSLSASVGDRVTITCRASEDIYNALAWYQQKPGKAPKLLIYNTDTLHTGVPSRFSGSGSGTDYTLTISSLQPEDFATYFCQHYFHYPRTFGQGTKVEIKR
B5: in the assay with Recombinant Human β-NGF, the “C-Terminal VD NGF Neutralization Assay IC50” value was 7.46 nM. The “N-Terminal VD huTNFα Neutralization Assay IC50” value in assay [1] came out at 0.016 nM.

B6: DVD2719 (bispecific antibody, IgG1)
VH: EVQLVESGGGLVQPGGSLRLSCAASGFSLTNNNVNWVRQAPGKGLEWVGGVWAGGATDYNSALKSRFTISRDNSKNTAYLQMNSLRAEDTAVYYCARDGGYSSSTLYAMDAWGQGTLVTVSSASTKGPEVQLVESGGGLVQPGGSLRLSCAASGFTFSNYGVTWVRQAPGKGLEWVSMIWADGSTHYASSVKGRFTISRDNSKNTLYLQMNSLRAEDTAVYYCAREWQHGPVAYWGQGTLVTVSS
VL: DIQMTQSPSSLSASVGDRVTITCRASEDIYNALAWYQQKPGKAPKLLIYNTDTLHTGVPSRFSGSGSGTDYTLTISSLQPEDFATYFCQHYFHYPRTFGQGTKVEIKRTVAAPDIQMTQSPSSLSASVGDRVTITCRASQLVSSAVAWYQQKPGKAPKLLIYWASARHTGVPSRFSGSGSGTDFTLTISSLQPEDFATYYCQQHYKTPFTFGQGTKLEIKR
With B6, the “N-Terminal VD NGF Neutralization Assay IC50” value in the assay with Recombinant Human β-NGF is 0.019 nM. For the same molecule, the “C-Terminal VD huTNFα Neutralization Assay IC50” value in assay [1] came to 0.126 nM.

B7: DVD2771 (bispecific antibody, IgG1)
VH: EVQLVESGGGLVQPGGSLRLSCAASGFSLTNNNVNWVRQAPGKGLEWVGGVWAGGATDYNSALKSRFTISRDNSKNTAYLQMNSLRAEDTAVYYCARDGGYSSSTLYAMDAWGQGTLVTVSSASTKGPEVQLVESGGGLVQPGGSLRLSCAASGFTFSNYGVEWVRQAPGKGLEWVSGIWADGSTHYADTVKSRFTISRDNSKNTLYLQMNSLRAEDTAVYYCAREWQHGPVAYWGQGTLVTVSS
VL: DIQMTQSPSSLSASVGDRVTITCRASEDIYNALAWYQQKPGKAPKLLIYNTDTLHTGVPSRFSGSGSGTDYTLTISSLQPEDFATYFCQHYFHYPRTFGQGTKVEIKRTVAAPSVFIFPPDIQMTQSPSSLSASVGDRVTITCKASQLVSSAVAWYQQKPGKAPKLLIYWASTLHTGVPSRFSGSGSGTDFTLTISSLQPEDFATYYCQQHYRTPFTFGQGTKLEIKR
Turning to B7, the “N-Terminal VD NGF Neutralization Assay IC50” value in the assay with Recombinant Human β-NGF worked out at 0.037 nM. In addition, in assay [1], the “C-Terminal VD huTNFα Neutralization Assay IC50” value worked out at 0.06 nM.

B8: DVD2769 (bispecific antibody, IgG1)
VH: EVQLVESGGGLVQPGGSLRLSCAASGFSLTNNNVNWVRQAPGKGLEWVGGVWAGGATDYNSALKSRFTISRDNSKNTAYLQMNSLRAEDTAVYYCARDGGYSSSTLYAMDAWGQGTLVTVSSASTKGPEVQLVESGGGLVQPGGSLRLSCAASGFTFSNYGVEWVRQAPGKGLEWVSGIWADGSTHYADTVKSRFTISRDNSKNTLYLQMNSLRAEDTAVYYCAREWQHGPVAYWGQGTLVTVSS
VL: DIQMTQSPSSLSASVGDRVTITCRASEDIYNALAWYQQKPGKAPKLLIYNTDTLHTGVPSRFSGSGSGTDYTLTISSLQPEDFATYFCQHYFHYPRTFGQGTKVEIKRTVAAPDIQMTQSPSSLSASVGDRVTITCKASQLVSSAVAWYQQKPGKAPKLLIYWASTLHTGVPSRFSGSGSGTDFTLTISSLQPEDFATYYCQQHYRTPFTFGQGTKLEIKR
In the case of B8, in the assay with Recombinant Human β-NGF, the “N-Terminal VD NGF Neutralization Assay IC50” value was 0.001 nM. The “C-Terminal VD huTNFα Neutralization Assay IC50” value in assay [1] is 0.222 nM.

B9: DVD2772 (bispecific antibody, IgG1)
VH: EVQLVESGGGLVQPGGSLRLSCAASGFSLTNNNVNWVRQAPGKGLEWVGGVWAGGATDYNSALKSRFTISRDNSKNTAYLQMNSLRAEDTAVYYCARDGGYSSSTLYAMDAWGQGTLVTVSSASTKGPSVFPLAPEVQLVESGGGLVQPGGSLRLSCAASGFTFSNYGVEWVRQAPGKGLEWVSGIWADGSTHYADTVKSRFTISRDNSKNTLYLQMNSLRAEDTAVYYCAREWQHGPVAYWGQGTLVTVSS
VL: DIQMTQSPSSLSASVGDRVTITCRASEDIYNALAWYQQKPGKAPKLLIYNTDTLHTGVPSRFSGSGSGTDYTLTISSLQPEDFATYFCQHYFHYPRTFGQGTKVEIKRTVAAPDIQMTQSPSSLSASVGDRVTITCKASQLVSSAVAWYQQKPGKAPKLLIYWASTLHTGVPSRFSGSGSGTDFTLTISSLQPEDFATYYCQQHYRTPFTFGQGTKLEIKR
With B9, the “N-Terminal VD NGF Neutralization Assay IC50” value with Recombinant Human β-NGF amounted to 0.04 nM. For the same molecule, the “C-Terminal VD huTNFα Neutralization Assay IC50” value in assay [1] was found to be 0.128 nM.

B10: DVD2722 (bispecific antibody, IgG1)
VH: EVQLVESGGGLVQPGGSLRLSCAASGFSLTNNNVNWVRQAPGKGLEWVGGVWAGGATDYNSALKSRFTISRDNSKNTAYLQMNSLRAEDTAVYYCARDGGYSSSTLYAMDAWGQGTLVTVSSASTKGPSVFPLAPEVQLVESGGGLVQPGGSLRLSCAASGFTFSNYGVTWVRQAPGKGLEWVSMIWADGSTHYASSVKGRFTISRDNSKNTLYLQMNSLRAEDTAVYYCAREWQHGPVAYWGQGTLVTVSS
VL: DIQMTQSPSSLSASVGDRVTITCRASEDIYNALAWYQQKPGKAPKLLIYNTDTLHTGVPSRFSGSGSGTDYTLTISSLQPEDFATYFCQHYFHYPRTFGQGTKVEIKRTVAAPDIQMTQSPSSLSASVGDRVTITCRASQLVSSAVAWYQQKPGKAPKLLIYWASARHTGVPSRFSGSGSGTDFTLTISSLQPEDFATYYCQQHYKTPFTFGQGTKLEIKR
Turning to B10, the “N-Terminal VD NGF Neutralization Assay IC50” value in the assay with Recombinant Human β-NGF is 0.053 nM. Also, in assay [1], the “C-Terminal VD huTNFα Neutralization Assay IC50” value turned out to be 0.19 nM.

B11: DVD2721 (bispecific antibody, IgG1)
VH: EVQLVESGGGLVQPGGSLRLSCAASGFSLTNNNVNWVRQAPGKGLEWVGGVWAGGATDYNSALKSRFTISRDNSKNTAYLQMNSLRAEDTAVYYCARDGGYSSSTLYAMDAWGQGTLVTVSSASTKGPEVQLVESGGGLVQPGGSLRLSCAASGFTFSNYGVTWVRQAPGKGLEWVSMIWADGSTHYASSVKGRFTISRDNSKNTLYLQMNSLRAEDTAVYYCAREWQHGPVAYWGQGTLVTVSS
VL: DIQMTQSPSSLSASVGDRVTITCRASEDIYNALAWYQQKPGKAPKLLIYNTDTLHTGVPSRFSGSGSGTDYTLTISSLQPEDFATYFCQHYFHYPRTFGQGTKVEIKRTVAAPSVFIFPPDIQMTQSPSSLSASVGDRVTITCRASQLVSSAVAWYQQKPGKAPKLLIYWASARHTGVPSRFSGSGSGTDFTLTISSLQPEDFATYYCQQHYKTPFTFGQGTKLEIKR
With B11, the “N-Terminal VD NGF Neutralization Assay IC50” value with Recombinant Human β-NGF is 0.041 nM. In addition, the “C-Terminal VD huTNFα Neutralization Assay IC50” value in assay [1] was found to be 0.029 nM.
